Laboratory results as given in patent US20240076396A1 (Regeneron, published 2024).

What was measured:
[1] = target: T1, hGITR.mmH (soluble monomeric recombinant human GITR ectodomain protein) (human); assay: blocking ELISA: 1.5 nM hGITR.mmH pre-incubated with antibody, binding to plate-coated hGITR-L
T1 construct: also called monomeric human GITR
T1 chain: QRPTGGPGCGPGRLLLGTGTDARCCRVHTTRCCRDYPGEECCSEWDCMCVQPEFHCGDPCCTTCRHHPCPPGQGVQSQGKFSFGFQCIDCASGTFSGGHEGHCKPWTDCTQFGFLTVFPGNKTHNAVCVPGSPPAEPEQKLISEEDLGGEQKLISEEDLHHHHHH

[2] = target: T2, human GITR expressed on the cell surface (human, UniProt Q9Y5U5 26-241); assay: flow cytometry on Jurkat/hCD20/hGITR cells; max MFI over secondary antibody alone
T2 construct: also called hGITR; Jurkat/hCD20/hGITR cells
T2 sequence: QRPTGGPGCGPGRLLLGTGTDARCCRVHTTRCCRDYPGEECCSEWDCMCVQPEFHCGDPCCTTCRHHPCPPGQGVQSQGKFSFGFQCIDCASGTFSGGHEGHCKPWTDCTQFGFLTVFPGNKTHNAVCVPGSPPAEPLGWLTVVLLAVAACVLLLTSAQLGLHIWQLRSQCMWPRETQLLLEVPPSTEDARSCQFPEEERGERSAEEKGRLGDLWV
Protocol: (§1) Flow cytometry was used to evaluate mAb1 binding to Jurkat/hCD20/hGITR cells and Jurkat/hCD20/MfGITR cells. Jurkat/hCD20 cells were used as a negative control cell line for GITR binding. Cells were added to a 96-well V-bottom plate (2×10⁵ to 4×10⁵ cells/well) and incubated in Fc block solution, followed by successive incubation on ice with primary antibody (mAb1 or IgG1 isotype control) at final concentrations ranging from 18 pM to 300 nM and a secondary antibody (AF647-conjugated anti-human IgG) at 5 μg/mL. Cells were then stained with LIVE/DEAD Fixable Green Dead Cell Stain according to the manufacturer's instructions. […] Data were analyzed with Flow.lo software. For EC₅₀ (effective concentration at 50% activity) determinations, measured geometric MFI values were analyzed using a 4-parameter logistic equation over a 9-point response curve with GraphPad Prism. The fold binding was determined by taking the ratio of the highest MFI on the curve to the MFI of the wells containing secondary antibody only.
(§2) ^a The maximum MFI was the highest mean MFI value within the concentration range tested (18 pM to 300 nM). ^b Fold binding was calculated as the maximum MFI above background (secondary antibody alone). h, Human; Mf, Macaca fascicularis (cynomolgus monkey); ND, Not determined because concentration-dependent binding was not observed

[3] = target: T2, human GITR expressed on the cell surface; assay: cell-based or functional assay
[4] = target: T3, cynomolgus monkey GITR expressed on the cell surface (Macaca fascicularis (cynomolgus monkey)); assay: flow cytometry on Jurkat/hCD20/MfGITR cells
T3 construct: whole, on cells; also called MfGITR; Jurkat/hCD20/MfGITR cells
Protocol: FIG. 5A, FIG. 5B, and FIG. 5C depict cell-surface binding of mAb1 and IgG1 isotype control at a range of concentrations (18 pM to 300 nM) on Jurkat/hCD20 (FIG. 5A), Jurkat/hCD20/hGITR (FIG. 5B), and Jurkat/hCD20/MfGITR (FIG. 5C) cells. Binding was detected using an Alexa647-labeled anti-human IgG by flow cytometry. Fluorescence intensity was plotted as geometric MFI. h, Human; Mf, Macaca fascicularis (cynomolgus monkey).
as §1, with “μg/mL.” for “μg/mL. Cells were then stained with LIVE/DEAD Fixable Green Dead Cell Stain according to the manufacturer's instructions.”

[5] = target: T3, cynomolgus monkey GITR expressed on the …; assay: flow cytometry on Jurkat/hCD20/MfGITR cells; max MFI over secondary antibody alone
Protocol: as §1, §2

[6] = target: T1, hGITR.mmH (soluble monomeric …); assay: SPR Biacore 2000 25C; CHOt supernatant antibody captured on anti-human Fc; 100 nM hGITR.mmH
Protocol: Biacore experiments for antibodies secreted in conditioned culture medium were performed as follows. Using a Biacore 2000 instrument at 25° C., antibodies were captured for 80 seconds at a flow rate of 8 uL/min on a CM5 anti-humanFc-coupled surface. Approximately 1000-2000 RU of each antibody were captured. 100 nM hGITR.mmH (soluble monomeric hGITR, SEQ ID NO: 45) or 50 nM hGITR.mFc (dimeric Macaca fasicularis GITR, SEQ ID NO: 46) were injected over this surface for 2 minutes at a flow rate of 50 uL/min. Dissociation was measured for 2 minutes. The KD and t_{1/2} were calculated by fitting the double-referenced sensorgrams to a 1:1 binding model.

[7] = target: T2, human GITR expressed on the cell surface; assay: cell-based or functional assay; remark: listed apart in the source
[8] = target: T4, Jurkat/hCD20 cells (human CD20, no GITR; negative control cell line) (human, UniProt P11836 1-297); assay: cell-based or functional assay
T4 sequence (looked up): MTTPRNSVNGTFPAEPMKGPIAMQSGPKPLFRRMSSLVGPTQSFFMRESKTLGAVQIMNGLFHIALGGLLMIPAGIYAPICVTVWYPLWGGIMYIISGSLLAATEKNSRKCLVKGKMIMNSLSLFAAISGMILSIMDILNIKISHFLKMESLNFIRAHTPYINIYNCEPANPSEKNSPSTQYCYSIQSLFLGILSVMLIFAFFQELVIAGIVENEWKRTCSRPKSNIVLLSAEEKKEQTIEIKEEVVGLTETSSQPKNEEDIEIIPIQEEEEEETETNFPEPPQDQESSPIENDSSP

[9] = target: T2, human GITR expressed on the cell surface; assay: cell-based or functional assay; remark: listed apart in the source
[10] = target: T3, cynomolgus monkey GITR expressed on the …; assay: cell-based or functional assay

B1: mAb1 (antibody, human IgG1, kappa, V domains shown)
VH: QVQLQESGPGLVKPSETLSLTCIVSGGSISGYFWNWIRQPPGKGLEWIGYIYYSGTTIYNPSLKSRFTISLDTSKNQFSLKLTSVTAADTAVYYCARESYDPSPRYFDHWGQGTLVTVSS
VL: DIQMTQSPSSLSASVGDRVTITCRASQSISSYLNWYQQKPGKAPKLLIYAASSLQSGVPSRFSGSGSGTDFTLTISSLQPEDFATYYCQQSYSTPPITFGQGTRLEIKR
notes: Human IgG1; N101D variant of CompAb1; also called N101D Variant; N101D
IC50 [1]: 6.66 nM
Fold Binding [2]: 290 fold
EC50, anti-CD3-mediated primary CD4+ T-cell proliferation, Donor 1900G [3]: 0.43 nM
EC50, anti-CD3-mediated primary CD4+ T-cell proliferation, Donor 2000U [3]: 0.0391 nM
EC50, anti-CD3-mediated primary CD4+ T-cell proliferation, Donor 3600Y [3]: 17.2 nM
EC50, anti-CD3-mediated primary CD4+ T-cell proliferation, Donor 3800U [3]: 0.107 nM
EC50, anti-CD3-mediated primary CD4+ T-cell proliferation, Donor 34001 [3]: 0.193 nM
Fold Change in Activity, anti-CD3-mediated primary CD4+ T-cell proliferation, Donor 1900G [3]: 3.14 fold
Fold Change in Activity, anti-CD3-mediated primary CD4+ T-cell proliferation, Donor 2000U [3]: 2.45 fold
Fold Change in Activity, anti-CD3-mediated primary CD4+ T-cell proliferation, Donor 3600Y [3]: 2.3 fold
Fold Change in Activity, anti-CD3-mediated primary CD4+ T-cell proliferation, Donor 3800U [3]: 2.45 fold
Fold Change in Activity, anti-CD3-mediated primary CD4+ T-cell proliferation, Donor 34001 [3]: 2.62 fold
Fold Change in Activity, anti-CD3-mediated primary CD4+ T-cell proliferation, Donor 41003 [3]: 2.54 fold
EC50 [4]: 3.52 nM
Fold Binding [5]: 277 fold
Kd [6]: 14.8 nM
t1/2 [6]: 7.52 min
EC50, ADCC against human primary CD8+ T-cells Donor 0200R, NK Donor 05001 [7]: 0.139 nM
EC50, ADCC against human primary CD8+ T-cells Donor 0400N, NK Donor 04003 [7]: 0.0764 nM
EC50, ADCC against human primary CD8+ T-cells Donor 0400N, NK Donor 05001 [7]: 0.116 nM
EC50, ADCC against human primary CD8+ T-cells Donor 5100X, NK Donor 04003 [7]: 0.128 nM
EC50, ADCC against human primary CD8+ T-cells Donor 5100X, NK Donor 05001 [7]: 0.0951 nM
EC50, ADCC against human primary Tregs Donor 0200R, NK Donor 04003 [7]: 0.0399 nM
EC50, ADCC against human primary Tregs Donor 0200R, NK Donor 05001 [7]: 0.0647 nM
EC50, ADCC against human primary Tregs Donor 0400N, NK Donor 04003 [7]: 0.0372 nM
EC50, ADCC against human primary Tregs Donor 0400N, NK Donor 05001 [7]: 0.0449 nM
EC50, ADCC against human primary Tregs Donor 5100X, NK Donor 04003 [7]: 0.0888 nM
EC50, ADCC against human primary Tregs Donor 5100X, NK Donor 05001 [7]: 0.0834 nM
Fold Change in Activity, NFAT-luciferase in Jurkat/NFAT-Luc/MfFcγR3a effector cells with Jurkat/hCD20 target cells [8]: 1.02 fold
Fold Change in Activity, NFAT-luciferase in Jurkat/NFAT-Luc/hFcγR3a effector cells with Jurkat/hCD20 target cells [8]: 1.01 fold
EC50, NFAT-luciferase in Jurkat/NFAT-Luc/hFcγR3a effector cells with Jurkat/hCD20/hGITR target cells [9]: 0.032 nM
Fold Change in Activity, NFAT-luciferase in Jurkat/NFAT-Luc/hFcγR3a effector cells with Jurkat/hCD20/hGITR target cells [9]: 38 fold
EC50, NFAT-luciferase in Jurkat/NFAT-Luc/MfFcγR3a effector cells with Jurkat/hCD20/MfGITR target cells [10]: 0.016 nM
Fold Change in Activity, NFAT-luciferase in Jurkat/NFAT-Luc/MfFcγR3a effector cells with Jurkat/hCD20/MfGITR target cells [10]: 23.9 fold
